Tests used:
[1] = test system: P. aeruginosa PA14 mature biofilms; assay: MBEC assay, dissolution of mature biofilms; type: cell-based, Pseudomonas aeruginosa; conditions: conalbumin; mature biofilms; 24 h exposure
Procedure: (§1) In some examples, biofilm prevention and dissolution were measured via a high-throughput biofilm assay (MBEC Physiology and Genetics Assay) consisting of a 96-well plate into which a 96-peg plastic lid fits. This lid also fits over a standard 96-well plate, which was subsequently used to test the efficacy of iron chelators. Inoculum was prepared by diluting (30-fold) a 1.0 McFarland suspension of P. aeruginosa PA14 in TSB. 150 μl, was dispensed into each of the 60 inner wells, while 200 μl, of sterile trypticase soy broth (TSB) was placed in each perimeter well. For dissolution experiments, plates were incubated at 37° C. for 24 h, and were transferred to an anaerobic chamber for 24 h at 37° C. in anaerobic TSB containing 50 mM KNO3. Biofilms were then exposed to conalbumin and/or Ferrozine® for 24 h. Each treatment was complemented with the addition of 80 μM ferrous ammonium sulfate. After treatment, lids were rinsed once in 50 mM HEPES, air dried for 10 min and quantified by crystal violet staining. For biofilm prevention, anaerobic inoculum was amended with conalbumin and/or Ferrozine®. Media was replaced every 24 h by transferring the MBEC lid to a sterile plate containing growth media+/− treatments, and biofilms were allowed to develop for 168 h. Biomass was quantified as described above. Biological triplicates and six technical replicates (n=18) were used for each treatment.

[2] = test system: P. aeruginosa PA14 wild type; assay: Flow cell biofilm development, wild type, 1% TSB with or without conalbumin
[3] = test system: P. aeruginosa; assay: Planktonic growth rates with iron chelators; type: cell-based, Pseudomonas aeruginosa
[4] = test system: P. aeruginosa PA14 biofilm; assay: MBEC assay, anaerobic biofilm prevention; type: cell-based, Pseudomonas aeruginosa; conditions: 100 μM conalbumin, ˜10 μM Fe(II) and 10 μM Fe(III) present
Procedure: as §1

[5] = Day 6, WT, 40 μg/ml conalbumin, 10 μM PCA or PYO

B1: conalbumin: Fe(III)-binding protein of the transferrin family, an Fe(III) chelator; substantially iron-free, from Sigma-Aldrich (protein, UniProt P02789 20-705, looked up)
Ovotransferrin: APPKSVIRWCTISSPEEKKCNNLRDLTQQERISLTCVQKATYLDCIKAIANNEADAISLDGGQAFEAGLAPYKLKPIAAEVYEHTEGSTTSYYAVAVVKKGTEFTVNDLQGKTSCHTGLGRSAGWNIPIGTLLHRGAIEWEGIESGSVEQAVAKFFSASCVPGATIEQKLCRQCKGDPKTKCARNAPYSGYSGAFHCLKDGKGDVAFVKHTTVNENAPDQKDEYELLCLDGSRQPVDNYKTCNWARVAAHAVVARDDNKVEDIWSFLSKAQSDFGVDTKSDFHLFGPPGKKDPVLKDLLFKDSAIMLKRVPSLMDSQLYLGFEYYSAIQSMRKDQLTPSPRENRIQWCAVGKDEKSKCDRWSVVSNGDVECTVVDETKDCIIKIMKGEADAVALDGGLVYTAGVCGLVPVMAERYDDESQCSKTDERPASYFAVAVARKDSNVNWNNLKGKKSCHTAVGRTAGWVIPMGLIHNRTGTCNFDEYFSEGCAPGSPPNSRLCQLCQGSGGIPPEKCVASSHEKYFGYTGALRCLVEKGDVAFIQHSTVEENTGGKNKADWAKNLQMDDFELLCTDGRRANVMDYRECNLAEVPTHAVVVRPEKANKIRDLLERQEKRFGVNGSEKSKFMMFESQNKDLLFKDLTKCLFKVREGTTYKEFLGDKFYTVISSLKTCNPSDILQMCSFLEGK
modifications: iron-free
notes: substantially iron-free, from Sigma-Aldrich
[1]
  Reduction of established biomass: did not significantly reduce established biomass
[2]; [5]
  Max. biofilm thickness: 32 μm
  Substratum coverage: 11.8 ± 1.3%
[2]; Day 6, WT, additives to 1% TSB: 40 μg/ml conalbumin, 10 μM PCA or PYO
  Total biomass: 0.80 ± 0.08 μm^3/μm^2
[2]; Day 6, WT, calculated for the area covered by biomass, 40 μg/ml conalbumin, 10 μM PCA or PYO
  Avg. thickness of biomass: 9.0 ± 0.7 μm
[2]; wild type, 1% TSB, 40 μg/ml conalbumin
  Biofilm formation with conalbumin (iron-free form) added: neither strain formed biofilms
[3]
  Effect on planktonic growth rates: Neither compound affected planktonic growth rates
[4]
  Prevention of biofilm growth: ineffective in preventing biofilm growth

From patent US11820973B2, “Methods and system for interfering with viability of bacteria and related compounds and compositions” (CALIFORNIA INSTITUTE OF TECHNOLOGY, priority 2011, dated 2023)
